Laboratory results as given in US20200405820A1 (GENERAL HOSPITAL, published 2020).

Columns and labels:
[1] = target: T1, parathyroid hormone receptor 1 (PTHR1) in human osteoblast-derived SaOS-2 cells (human, UniProt Q03431 27-593); assay: cell-based or functional assay
T1 sequence (looked up): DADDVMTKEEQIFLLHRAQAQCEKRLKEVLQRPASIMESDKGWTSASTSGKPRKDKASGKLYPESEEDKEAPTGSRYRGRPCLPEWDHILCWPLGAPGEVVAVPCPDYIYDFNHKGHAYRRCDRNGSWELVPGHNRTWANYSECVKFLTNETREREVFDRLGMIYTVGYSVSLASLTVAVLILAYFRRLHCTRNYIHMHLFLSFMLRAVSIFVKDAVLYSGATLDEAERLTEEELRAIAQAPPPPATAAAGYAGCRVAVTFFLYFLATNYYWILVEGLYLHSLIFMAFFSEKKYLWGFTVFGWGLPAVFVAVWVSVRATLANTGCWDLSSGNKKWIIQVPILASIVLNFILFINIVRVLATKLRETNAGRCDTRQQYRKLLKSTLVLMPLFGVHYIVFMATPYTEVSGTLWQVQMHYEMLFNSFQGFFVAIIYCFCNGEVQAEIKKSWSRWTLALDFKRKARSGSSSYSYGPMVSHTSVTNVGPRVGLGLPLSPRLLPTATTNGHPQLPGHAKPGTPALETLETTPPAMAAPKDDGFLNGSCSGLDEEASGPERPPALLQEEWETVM

[2] = target: T1, parathyroid hormone receptor 1 (PTHR1) …; assay: cell-based or functional assay; remark: listed apart in the source

- EC50, stimulation of cAMP formation in SaOS-2 cells [1]: ~0.6 nM
- Max %, cAMP signaling in SaOS2/glosensor (SGS-72) cells [2]: 85%
- pEC50, cAMP signaling potency in SaOS2/glosensor (SGS-72) cells [2]: 9.81 log molar concentration (pEC50)
B1: Palm-PTH(1-34) (Ref. No. 2027) (peptide)
peptide: SVSEIQLMHNLGKHLNSMERVEWLRKKLQDVHNFEYEXEYE
modifications: (PEG)2 linker (-C(O)-CH2(OCH2CH2)2CH2CH2-NH-) between the C-terminal Phe of PTH(1-34) and the N-terminal Glu of the tag; palmitoyl on the side-chain nitrogen of the Lys of the tag EYEK(palm)EYE; C-terminal amide (-NH2)
